In patent US20170015742A1 (published 2017):
Residue numbers refer to the chain shown, from its start. One block for each binder: values may come before it.

Key:
Human PDGF-BB [1] = biological target: T1, Human PDGF-BB (human, UniProt P01127 82-190); assay: cell-based or functional assay
Target sequence in this assay (P01127 82-190 limits assumed): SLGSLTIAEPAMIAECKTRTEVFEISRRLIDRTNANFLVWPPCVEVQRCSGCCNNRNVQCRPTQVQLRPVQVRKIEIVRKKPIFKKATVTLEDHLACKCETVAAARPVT

[2] = biological target: T2, Cynomolgus monkey PDGF-BB (cynomolgus monkey, UniProt P01127 82-190 (human entry), limits assumed); assay: cell-based or functional assay
T2 chain: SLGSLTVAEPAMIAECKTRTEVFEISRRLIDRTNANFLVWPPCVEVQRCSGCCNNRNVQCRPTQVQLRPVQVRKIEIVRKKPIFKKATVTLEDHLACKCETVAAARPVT

Human PDGF-BB [3] = biological target: T1, Human PDGF-BB; assay: Biacore SPR, antibody captured by anti-human Fc, PDGF-BB as analyte
Description: Unreacted moieties on the biosensor surface were blocked with ethanolamine. For kinetic analysis, rate equations derived from the 1:1 Langmuir binding model were fitted simultaneously to multiple antigen injections (using global fit analysis) with the use of Scrubber 2 (BioLogic Software), Biacore Biaevaluation 4.0.1 software or Biacore T100 Evaluation software. Purified antibodies or DVD-Ig molecules were diluted in running buffer for capture across goat anti-human Fc reaction surfaces. Antibodies or DVD-Ig molecules to be captured as a ligand (1 μg/ml) were injected over reaction matrices at a flow rate of 10 μl/minute. During the assay, all measurements were referenced against the capture surface alone (i.e., with no captured antibody or DVD-Ig molecule). […] The equilibrium dissociation constant KD (M) of the reaction between antibodies and the target antigen was then calculated from the kinetic rate constants by the following formula: KD=Koff/Kₒₙ. Binding was recorded as a function of time and kinetic rate constants were calculated. In this assay, on-rates as fast as 10⁶M⁻¹s⁻¹ and off-rates as slow as 10⁻⁶ s⁻¹ could be measured. […]
Target sequence in this assay (P01127 82-190 limits assumed): as the sequence (P01127 82-190 limits assumed) above

Human PDGF-BB [4] = biological target: T1, Human PDGF-BB; assay: competition ELISA: antibody pre-incubated with hPDGF-BB-biotin, binding to coated hPDGF-Rβ-Fc
Description: Plates were then washed four times with wash buffer (TBS, 0.05% Tween-20) and blocked with Superblock blocking buffer (Thermo Scientific, cat#37535). During the blocking step, supernatants, antibodies, benchmark compounds or DVD-Ig were diluted in assay diluent (10% Superblock containing 0.05% surfactamps) and an eight point titration of each sample molecule was performed. […] Following incubation, plates were washed four times with wash buffer. Detection reagent Streptavidin-polyHRP-40 (Fitzgerald, cat#65r-s104phrp) was diluted in assay diluent and added to plates (50 μL) for 45 minutes at 25° C. with shaking. Plates were washed four times with wash buffer and developed with the addition of Enhanced K-blue TMB substrate (Neogen, cat#308177). The reaction was stopped with 2N sulfuric acid (VWR, cat# BDH3500-1) and the absorbance was read at 450 nm-570 nm. […] Data was analyzed using Softmax Pro 4.8 software and IC₅₀ values calculated using a sigmoidal dose response (variable slope) fit in GraphPad Prism 5.
Potency was evaluated in both cell-based and ELISA formats.

Human VEGF-A 165 = biological target: T3, Human VEGF-A 165 (human, UniProt P15692 207-395); assay: SPR (Biacore), antibody captured by anti-human Fc, hVEGF165 as analyte
T3 construct: Recombinant human VEGF165; also called huVEGF-A165; hVEGF165
T3 sequence (P15692 other isoform, or with tags, fused parts or gaps): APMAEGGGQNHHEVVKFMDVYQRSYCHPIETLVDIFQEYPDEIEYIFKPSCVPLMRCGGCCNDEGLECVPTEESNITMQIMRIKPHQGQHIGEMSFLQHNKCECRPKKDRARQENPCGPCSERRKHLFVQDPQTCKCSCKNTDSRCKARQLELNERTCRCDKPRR
Description: For example, approximately 9000 RU of goat anti-human Fc specific polyclonal antibody (Thermo Fisher Scientific Inc., Rockford, Ill.) diluted in 10 mM sodium acetate (pH 4.5) is directly immobilized across a CM5 research grade biosensor chip using a standard amine coupling kit according to manufacturer's instructions and procedures at 25 μg/ml. Unreacted moieties on the biosensor surface were blocked with ethanolamine. For kinetic analysis, rate equations derived from the 1:1 Langmuir binding model were fitted simultaneously to multiple antigen injections (using global fit analysis) with the use of Scrubber 2 (BioLogic Software), Biacore Biaevaluation 4.0.1 software or Biacore T100 Evaluation software. Purified antibodies or DVD-Ig molecules were diluted in running buffer for capture across goat anti-human Fc reaction surfaces. Antibodies or DVD-Ig molecules to be captured as a ligand (1 μg/ml) were injected over reaction matrices at a flow rate of 10 μl/minute. During the assay, all measurements were referenced against the capture surface alone (i.e., with no captured antibody or DVD-Ig molecule). […] The equilibrium dissociation constant KD (M) of the reaction between antibodies and the target antigen was then calculated from the kinetic rate constants by the following formula: KD=Koff/Kₒₙ. Binding was recorded as a function of time and kinetic rate constants were calculated.

Kd (Human VEGF-A 165): 9.4 pM
kon (Human VEGF-A 165): 5.5e+06 M⁻¹ s⁻¹
B5: chBEW-1B10 (antibody, human IgG1, kappa, L234A L235A, V domains shown)
VH: EVQLVESGGGLVQPGRSLKLSCAASGFSFSKYDMAWFRQTPTKGLEWVASITTSGVGTYYRDSVKGRFTVSRDNAKSTLYLQMDSLRSEDTATYYCARGYGAMDAWGQGTSVTVSS
VL: DIQMTQSPASLSASLEEIVTITCKASQDIDDYLSWYQQKPGKSPQLVIYAATRLADGVPSRFSGSGSGTQYSLKISRLQVDDSGIYYCLQSSSTPWTFGGGTNLELKR
notes: also called chBEW-1B10-B9-C3

Kd (Human VEGF-A 165): 16 pM
kon (Human VEGF-A 165): 6.2e+06 M⁻¹ s⁻¹
B6: chBEW-8E6 (antibody, human IgG1, kappa, L234A L235A, V domains shown)
VH: QIQLVQSGPELKKPGESVKISCKASGYTFTDYAMHWVKQAPGKVLKWMGWINTFTGKPTYIDDFKGRFVFSLEASASTANLQISDLKNEDTATYFCARGNYYSGYWYFDFWGPGTMVTMSS
VL: DIQMTQSPASLSASLGETISIECRASEDISSNLAWYQQKSGKSPQLLIFAANRLQDGVPSRFSGSGSGTQFSLKISGMQPEDEGDYFCLQGSKFYTFGAGTKLELKR
notes: also called chBEW-8E6-E4

Kd (Human VEGF-A 165): 12 pM
kon (Human VEGF-A 165): 6.8e+06 M⁻¹ s⁻¹
B7: chBEW-5C3 (antibody, human IgG1, kappa, L234A L235A, V domains shown)
VH: QIQLVQSGPELKKPGESVKISCKASGYTFTNYGVYWVKQAPGQGLQYMGWINTETGKPTYADDFKGRFVFFLETSTNTAYLQINNLKNEDMATFFCARARQLDWFVYWGQGTLVTVSS
VL: DTVLTQSPALTVSPGERVSISCRARESLTTSLCWFQQKPGQQPKLLIYGASKLESGVPARFSGSGSGTDFTLTIDPVEADDTATYFCQQSWYDPPTFGGGTKLELKR
notes: also called chBEW-5C3-E7

Kd (Human VEGF-A 165): 11 pM
kon (Human VEGF-A 165): 7.2e+06 M⁻¹ s⁻¹
B8: chBEW-1E3 (antibody, human IgG1, kappa, L234A L235A, V domains shown)
VH: QIQLVQSGPELKKPGESVKISCKASGYPFTNSGMYWVKQAPGQGLQYMGWINTEAGKPTYADDFKGRFVFFLETSASTAYLQINNLKNEDMATYFCARWGYISDNSYGWFDYWGQGTLVTVSS
VL: DTVLTQSPALAVSPGERVSISCRASEGVYSYMHWYQQNPGQQPKLLIYKASNLASGVPARFSGSGSGTDFTLTIDPVEADDTATYFCHQNWNDPLTFGSGTKLEIKR
notes: also called chBEW-1E3-D6

The remaining lines, values behind:

B1: CL-33682-IgG (antibody, V domains shown)
VH: EVTLRESGPALVKPTQTLTLTCTFSGFSLSTYGMGVGWIRQPPGKALEWLANIWWDDDKYYNPSLKNRLTISKDTSKNQVVLTMTNMDPVDTATYYCARIESSWTSYSFDYWGQGTMVTVSS
VL: EIVLTQSPGTLSLSPGERATLSCERSSGSNYDTYVSWYQQKPGQAPRLLIYADDLRASGIPDRFSGSGSGTDFTLTISRLEPEDFAVYYCQSYGINIDVVFGGGTKVEIK
hPDGF-BB NIH-3T3 Proliferation IC50 (Human PDGF-BB [1]): 30 pM
cynoPDGF-BB NIH-3T3 Proliferation IC50 [2]: 19 pM
Kd (Human PDGF-BB [3]): ≤ 0.24 pM
kon (Human PDGF-BB [3]): ≥ 9e+07 M⁻¹ s⁻¹
IC50 (Human PDGF-BB [4]): 69 pM

B2: CL-33683-IgG (antibody, V domains shown)
VH: B1 VH with S102T, S103I, W104G, T105P, S106K
VL: B1 VL with E24R, R25A, N30I, Y31W, D32Y, T33S, Y34F, L55Q
hPDGF-BB NIH-3T3 Proliferation IC50 (Human PDGF-BB [1]): 29 pM
cynoPDGF-BB NIH-3T3 Proliferation IC50 [2]: 28 pM
Kd (Human PDGF-BB [3]): 0.44 pM
kon (Human PDGF-BB [3]): 1.9e+07 M⁻¹ s⁻¹
IC50 (Human PDGF-BB [4]): 126 pM

B3: CL-33845-IgG (antibody, V domains shown)
VH: B1 VH with E101V, S103D, S106T
VL: B1 VL with E24R, R25A, N30I, Y31W, D32Y, T33S, Y34F, L55Q
hPDGF-BB NIH-3T3 Proliferation IC50 (Human PDGF-BB [1]): 171 pM
cynoPDGF-BB NIH-3T3 Proliferation IC50 [2]: 73 pM
IC50 (Human PDGF-BB [4]): 409 pM

B4: CL-33699-IgG (antibody, V domains shown)
VH: B1 VH with V36I, S103M, W104G, T105P, S106K, S108A
VL: B1 VL with E24R, R25A, N30I, Y31W, D32Y, T33S, Y34F, L55Q
hPDGF-BB NIH-3T3 Proliferation IC50 (Human PDGF-BB [1]): 33 pM
cynoPDGF-BB NIH-3T3 Proliferation IC50 [2]: 16 pM
IC50 (Human PDGF-BB [4]): 72 pM

B9: chBEW-1B4 (antibody, human IgG1, kappa, L234A L235A, V domains shown)
VH: QIQLVQSGPELKKPGESVKISCKASGYSFTNYGMYWVKQAPGQGLQYMGWIDTETGKPTYTDDFKGRFVFFLETSASTAYLQINNLKNEDMATYFCARWSGDTAGIRGPWFAYWGQGTLVTVSS
VL: DIRMTQSPASLSASLGETVNIECLASEDIYSDLAWYQQKPGKSPQLLIYNANDLQKGVPSRFSGSGSGTQYSLKINSLQSEDVATYFCQQYNYYPGTFGAGTKLELKR
notes: also called chBEW-1B4-C4
Kd (Human VEGF-A 165): 11 pM
kon (Human VEGF-A 165): 1.1e+07 M⁻¹ s⁻¹
